Measured values from patent US20220213181A1 (Novartis, published 2022).
Values joined by “and” are separate entries in the source; they are usually repeats but may differ in a detail not shown here. Equal values may be shown once.

Experiments:
[1] = target: T1, Rat ANGPTL4(24-405)-FLAG-His6-Avi (rat, UniProt Q6TMA8 24-405, biotin on the C-terminal Avi tag (BirA) where the protein is immobilised); test: Octet (ForteBio) kinetics, biotinylated antigen on streptavidin sensor, IgG in solution; Octet kinetics, rat ANGPTL4 on the sensor, antibody up to 25 nM; run 2
T1 sequence: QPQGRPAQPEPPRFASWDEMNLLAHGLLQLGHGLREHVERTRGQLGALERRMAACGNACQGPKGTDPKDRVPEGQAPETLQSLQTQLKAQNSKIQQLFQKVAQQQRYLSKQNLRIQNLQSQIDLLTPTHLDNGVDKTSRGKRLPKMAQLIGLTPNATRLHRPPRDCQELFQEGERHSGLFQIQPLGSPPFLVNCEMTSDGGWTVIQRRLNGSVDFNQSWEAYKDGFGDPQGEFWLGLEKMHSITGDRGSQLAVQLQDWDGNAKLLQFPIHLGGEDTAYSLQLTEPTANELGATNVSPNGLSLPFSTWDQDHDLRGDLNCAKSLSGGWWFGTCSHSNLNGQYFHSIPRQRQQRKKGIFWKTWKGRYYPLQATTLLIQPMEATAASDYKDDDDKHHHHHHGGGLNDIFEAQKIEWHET

[2] = target: T2, Human ANGPTL4(26-161)-FLAG-His6-Avi (human, biotin on the C-terminal Avi tag (BirA) where the protein is immobilised); test: Octet (ForteBio) kinetics, biotinylated antigen on streptavidin sensor, IgG in solution; slower than the limit of detection
T2 construct: also called human ANGPTL4 N-terminal coiled coil domain; hANGPTL4-CCD
T2 chain: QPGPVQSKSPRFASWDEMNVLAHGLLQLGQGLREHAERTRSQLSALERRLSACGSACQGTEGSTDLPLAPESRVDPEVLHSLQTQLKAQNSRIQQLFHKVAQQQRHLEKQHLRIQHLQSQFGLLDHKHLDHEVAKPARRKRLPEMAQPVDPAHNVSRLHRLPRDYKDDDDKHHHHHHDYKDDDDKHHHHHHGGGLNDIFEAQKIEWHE

[3] = target: T3, Human ANGPTL4(26-406)-FLAG-His6-Avi (human, UniProt Q9BY76 24-406, biotin on the C-terminal Avi tag (BirA) where the protein is immobilised); test: as above
T3 construct: the text calls it 20 amino acids), then QP, ANGPTL4 26-406 and FLAG-His6-Avi; the signal peptide is left out here; also called full length human ANGPTL4; hANGPTL4
T3 sequence: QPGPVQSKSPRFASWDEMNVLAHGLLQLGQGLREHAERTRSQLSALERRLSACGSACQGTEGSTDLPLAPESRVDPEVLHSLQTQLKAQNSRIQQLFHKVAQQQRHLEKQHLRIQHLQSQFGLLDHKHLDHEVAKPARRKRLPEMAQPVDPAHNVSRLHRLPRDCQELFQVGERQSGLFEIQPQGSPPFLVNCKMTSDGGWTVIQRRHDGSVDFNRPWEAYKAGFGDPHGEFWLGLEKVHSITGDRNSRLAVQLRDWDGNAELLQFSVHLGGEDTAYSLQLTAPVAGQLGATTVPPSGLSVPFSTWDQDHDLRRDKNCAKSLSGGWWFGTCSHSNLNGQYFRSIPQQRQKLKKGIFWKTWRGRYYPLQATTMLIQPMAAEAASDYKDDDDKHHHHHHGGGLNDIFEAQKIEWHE

[4] = target: T4, Cynomolgus monkey ANGPTL4(26-161)-FLAG-His6-Avi (cynomolgus monkey, biotin on the C-terminal Avi tag (BirA) where the protein is immobilised); test: Octet (ForteBio) kinetics, biotinylated antigen on streptavidin sensor, IgG in solution
T4 construct: also called Cyno ANGPTL4 (26-161)
T4 chain: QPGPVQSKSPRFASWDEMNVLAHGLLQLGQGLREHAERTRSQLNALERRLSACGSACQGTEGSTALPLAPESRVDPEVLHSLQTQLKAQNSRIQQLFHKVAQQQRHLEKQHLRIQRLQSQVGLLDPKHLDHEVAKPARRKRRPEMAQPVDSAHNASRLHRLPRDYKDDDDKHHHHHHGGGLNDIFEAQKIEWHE

[5] = target: T2, Human ANGPTL4(26-161)-FLAG-His6-Avi; test: as above
[6] = target: T5, Cynomolgus monkey ANGPTL4(26-406)-FLAG-His6-Avi (cynomolgus monkey, biotin on the C-terminal Avi tag (BirA) where the protein is immobilised); test: as above
T5 construct: also called Cyno ANGPTL4 (26-406)
T5 chain: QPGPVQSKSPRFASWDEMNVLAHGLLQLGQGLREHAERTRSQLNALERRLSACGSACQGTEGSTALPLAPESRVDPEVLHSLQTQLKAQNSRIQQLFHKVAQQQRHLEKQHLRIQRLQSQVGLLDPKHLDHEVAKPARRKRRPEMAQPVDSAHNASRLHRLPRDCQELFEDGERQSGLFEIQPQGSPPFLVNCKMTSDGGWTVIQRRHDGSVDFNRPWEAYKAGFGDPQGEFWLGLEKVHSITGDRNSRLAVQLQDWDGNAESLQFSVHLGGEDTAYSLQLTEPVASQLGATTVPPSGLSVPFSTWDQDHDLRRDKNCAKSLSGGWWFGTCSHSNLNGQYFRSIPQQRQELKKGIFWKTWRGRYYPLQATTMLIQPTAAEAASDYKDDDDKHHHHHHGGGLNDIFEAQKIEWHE

[7] = target: T3, Human ANGPTL4(26-406)-FLAG-His6-Avi; test: as above
[8] = target: T1, Rat ANGPTL4(24-405)-FLAG-His6-Avi; test: as above

- koff [1]: 0.0011 s⁻¹
- kon [1]: 170000 M⁻¹ s⁻¹
- koff [2]: 3.1e-06 s⁻¹
- koff [3]: 4.9e-07 s⁻¹
- koff [4]: 6.4e-06 s⁻¹ and 1.7e-05 s⁻¹
- kon [4]: 270000 M⁻¹ s⁻¹ and 190000 M⁻¹ s⁻¹
- Kd [5]: ≤ 23 pM and 52 pM
- koff [5]: 9.2e-06 s⁻¹
- kon [5]: 220000 M⁻¹ s⁻¹ and 180000 M⁻¹ s⁻¹
- Kd [6]: 15 pM and ≤ 14 pM
- koff [6]: 5.4e-06 s⁻¹
- kon [6]: 360000 M⁻¹ s⁻¹ and 370000 M⁻¹ s⁻¹
- Kd [7]: 14 pM and 17 pM and ≤ 12 pM and 10 pM
- koff [7]: 5.9e-06 s⁻¹ and 6e-06 s⁻¹ and 7e-06 s⁻¹
- kon [7]: 410000 M⁻¹ s⁻¹ and 360000 M⁻¹ s⁻¹ and 430000 M⁻¹ s⁻¹ and 680000 M⁻¹ s⁻¹
- Kd [8]: 6030 pM
B1: NEG276-LALA (antibody, human IgG1, kappa, L234A L235A)
heavy: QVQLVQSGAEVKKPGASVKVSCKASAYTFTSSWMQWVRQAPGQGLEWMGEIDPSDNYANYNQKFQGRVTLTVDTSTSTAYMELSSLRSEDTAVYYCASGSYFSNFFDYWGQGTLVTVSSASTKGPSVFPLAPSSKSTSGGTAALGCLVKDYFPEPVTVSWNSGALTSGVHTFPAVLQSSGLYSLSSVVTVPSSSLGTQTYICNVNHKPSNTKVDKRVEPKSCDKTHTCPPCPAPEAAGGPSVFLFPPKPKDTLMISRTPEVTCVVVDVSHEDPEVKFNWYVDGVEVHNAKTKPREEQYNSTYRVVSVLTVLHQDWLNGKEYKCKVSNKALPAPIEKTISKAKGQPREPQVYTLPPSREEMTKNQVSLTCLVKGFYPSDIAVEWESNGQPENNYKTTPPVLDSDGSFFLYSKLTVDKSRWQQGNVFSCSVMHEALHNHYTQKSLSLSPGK
light: EIVMTQSPATLSVSPGERATLSCKASQDIGSNLNWLQQKPGQAPRRLIYAVSNRGPGIPARFSGSRSGSEYTLTISSLQSEDFAVYYCLQYASSPWTFGQGTKVEIKRTVAAPSVFIFPPSDEQLKSGTASVVCLLNNFYPREAKVQWKVDNALQSGNSQESVTEQDSKDSTYSLSSTLTLSKADYEKHKVYACEVTHQGLSSPVTKSFNRGEC
